# According to patent US8673848 (Novartis, dated 2014):
# *1 amine or outer side, *2 acyl side, *3 side chain or, on linkers, in order; H or OH if unused. Bridges are numbered along the chain shown (N, C = ends). [ ]: non-standard residue; d: D form. The star is where a group is joined. ‑S‑CH2‑C(:Z)‑CH2‑S‑ = thioether linker between two Cys sulfurs, S-CH2-C(=Z)-CH2-S, where Z is an oxime formed with (S)-1-(aminooxy)-19-carboxy-2,7,16,21-tetraoxo-9,12-dioxa-3,6,15,20-tetraazaoctatriacontan-38-oic acid (a fatty acid derivative, O=C(O)CCCCCCCCCCCCCCCCC(=O)N[C@@H](CCC(=O)NCCOCCOCC(=O)NCCNC(=O)CON=C(C[*:1])C[*:2])C(=O)O; Myristoyl = CCCCCCCCCCCCCC(=O)*; pGlu = O=C1CC[C@@H](C(=O)O)N1; Nle = CCCC[C@H](N)C(=O)O; AEEA = NCCOCCOCC(=O)O; Aib = CC(C)(N)C(=O)O
# T1: human APJ receptor (hAPJ) (human, UniProt P35414 1-380)
# T1 sequence (looked up): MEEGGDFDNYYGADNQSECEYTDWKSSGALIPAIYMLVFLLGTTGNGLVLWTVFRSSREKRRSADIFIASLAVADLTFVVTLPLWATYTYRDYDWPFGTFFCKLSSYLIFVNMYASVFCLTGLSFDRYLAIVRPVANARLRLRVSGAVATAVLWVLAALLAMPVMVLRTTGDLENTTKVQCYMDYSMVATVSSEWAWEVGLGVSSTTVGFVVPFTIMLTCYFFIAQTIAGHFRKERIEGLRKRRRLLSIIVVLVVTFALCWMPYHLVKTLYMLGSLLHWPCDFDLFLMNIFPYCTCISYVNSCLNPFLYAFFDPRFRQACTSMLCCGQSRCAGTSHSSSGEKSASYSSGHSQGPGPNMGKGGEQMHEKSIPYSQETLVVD
# B1: Example 9: pE-R-P-R-L-C-Aib-K-G-P-Nle-C-F-OH (peptide)
# peptide: [pGlu]RPRLC[Aib]KGP[Nle]CF-OH
# modifications: disulfide 6-12
# SMILES: CCCC[C@@H]1NC(=O)[C@@H]2CCCN2C(=O)CNC(=O)[C@H](CCCCN)NC(=O)C(C)(C)NC(=O)[C@@H](NC(=O)[C@H](CC(C)C)NC(=O)[C@H](CCCNC(=N)N)NC(=O)[C@@H]2CCCN2C(=O)[C@H](CCCNC(=N)N)NC(=O)[C@@H]2CCC(=O)N2)CSSC[C@@H](C(=O)N[C@@H](Cc2ccccc2)C(=O)O)NC1=O
# B2: Example 66: pE-R-P-R-L-C-H-K-G-P-Nle-C-F-OH with a -S-CH2-C(=Z)-CH2-S- linkage between the 2 cysteines at position 6 and 12 (peptide)
# peptide: [pGlu]RPRLCHKGP[Nle]CF-OH
# modifications: linker 6-12 via ‑S‑CH2‑C(:Z)‑CH2‑S‑; also: Z = oxime with (S)-1-(aminooxy)-19-carboxy-2,7,16,21-tetraoxo-9,12-dioxa-3,6,15,20-tetraazaoctatriacontan-38-oic acid on the linker ketone
# B3: Example 62: pE-R-P-R-L-C-H-K-G-P-Nle-C-F-NH2 (peptide)
# peptide: [pGlu]RPRLCHKGP[Nle]CF-NH2
# modifications: disulfide 6-12
# SMILES: CCCC[C@@H]1NC(=O)[C@@H]2CCCN2C(=O)CNC(=O)[C@H](CCCCN)NC(=O)[C@H](Cc2c[nH]cn2)NC(=O)[C@@H](NC(=O)[C@H](CC(C)C)NC(=O)[C@H](CCCNC(=N)N)NC(=O)[C@@H]2CCCN2C(=O)[C@H](CCCNC(=N)N)NC(=O)[C@@H]2CCC(=O)N2)CSSC[C@@H](C(=O)N[C@@H](Cc2ccccc2)C(N)=O)NC1=O
# B4: Example 61: pE-R-P-R-L-C-H-K(Myristoyl)-G-P-Nle-C-F-OH (peptide)
# peptide: [pGlu]RPRLCHK(Myristoyl)GP[Nle]CF-OH
# modifications: disulfide 6-12
# SMILES: CCCCCCCCCCCCCC(=O)NCCCC[C@@H]1NC(=O)[C@H](Cc2c[nH]cn2)NC(=O)[C@@H](NC(=O)[C@H](CC(C)C)NC(=O)[C@H](CCCNC(=N)N)NC(=O)[C@@H]2CCCN2C(=O)[C@H](CCCNC(=N)N)NC(=O)[C@@H]2CCC(=O)N2)CSSC[C@@H](C(=O)N[C@@H](Cc2ccccc2)C(=O)O)NC(=O)[C@H](CCCC)NC(=O)[C@@H]2CCCN2C(=O)CNC1=O
# B5: Example 60: Myristoyl-O2Oc-O2Oc-O2Oc-O2Oc-Q-R-P-R-L-C-H-K-G-P-Nle-C-f-OH (peptide)
# peptide: Myristoyl-[AEEA][AEEA][AEEA][AEEA]QRPRLCHKGP[Nle]C[dF]-OH
# modifications: disulfide 10-16
# SMILES: CCCCCCCCCCCCCC(=O)NCCOCCOCC(=O)NCCOCCOCC(=O)NCCOCCOCC(=O)NCCOCCOCC(=O)N[C@@H](CCC(N)=O)C(=O)N[C@@H](CCCNC(=N)N)C(=O)N1CCC[C@H]1C(=O)N[C@@H](CCCNC(=N)N)C(=O)N[C@@H](CC(C)C)C(=O)N[C@H]1CSSC[C@@H](C(=O)N[C@H](Cc2ccccc2)C(=O)O)NC(=O)[C@H](CCCC)NC(=O)[C@@H]2CCCN2C(=O)CNC(=O)[C@H](CCCCN)NC(=O)[C@H](Cc2c[nH]cn2)NC1=O
# B6: Example 63: pE-R-P-R-L-C-H-K-G-P-Nle-C-NH2 (peptide)
# peptide: [pGlu]RPRLCHKGP[Nle]C-NH2
# modifications: disulfide 6-12
# SMILES: CCCC[C@@H]1NC(=O)[C@@H]2CCCN2C(=O)CNC(=O)[C@H](CCCCN)NC(=O)[C@H](Cc2c[nH]cn2)NC(=O)[C@@H](NC(=O)[C@H](CC(C)C)NC(=O)[C@H](CCCNC(=N)N)NC(=O)[C@@H]2CCCN2C(=O)[C@H](CCCNC(=N)N)NC(=O)[C@@H]2CCC(=O)N2)CSSC[C@@H](C(N)=O)NC1=O
# B7: Example 6: pE-R-P-R-L-K-F-K-G-P-Nle-f (peptide)
# peptide: [pGlu]RPRLKFKGP[Nle][dF]
# modifications: lactam 6-C
# SMILES: CCCC[C@@H]1NC(=O)[C@@H]2CCCN2C(=O)CNC(=O)[C@H](CCCCN)NC(=O)[C@H](Cc2ccccc2)NC(=O)[C@@H](NC(=O)[C@H](CC(C)C)NC(=O)[C@H](CCCNC(=N)N)NC(=O)[C@@H]2CCCN2C(=O)[C@H](CCCNC(=N)N)NC(=O)[C@@H]2CCC(=O)N2)CCCCNC(=O)[C@@H](Cc2ccccc2)NC1=O
# B8: Example 65: pE-R-P-R-L-C-H-K-G-P-Nle-C-F-OH with a monosulfide linkage between the 2 cysteines at position 6 and 12 (peptide)
# peptide: [pGlu]RPRLCHKGP[Nle]CF-OH
# modifications: bridge 6-12; not fully specified (bridges); printed as pE-R-P-R-L-C-H-K-G-P-Nle-C-F-OH
# Target: T1, human APJ receptor (hAPJ)
# Experiment: cell-based or functional assay
row,Binder,hAPJ Ca2+ Flux EC50 [nM]
1,B1,2.16
2,B2,589
3,[pGlu]RPRLCHKGP[Nle]CF-OH (linker 6-12 via ‑S‑CH2‑C(O)CH2‑S‑),6.3
4,[pGlu]RPRLCHKGP[Nle]CF-OH (disulfide 6-12) [Example 8: pE-R-P-R-L-C-H-K-G-P-Nle-C-F-OH],1.04
5,B3,3.32
6,B4,89.2
7,B5,8.15
8,cyclo(QRPRLCFKGP[Nle]CFGG) (disulfide 6-12) [Example 7: Q-R-P-R-L-C-F-K-G-P-Nle-C-F-G-G],90.8
9,B6,3.18
10,B7,22
11,B8,1.1
